This note sets out measurements from patent US20210122804A1, “PEPTIDE LIGANDS FOR BINDING TO CD38” (BicycleTx Limited, priority 2018, published 2021).

Experiment [1] concerns the target T1, human CD38 (Homo sapiens, UniProt P28907).
T1 sequence (P28907 1-300): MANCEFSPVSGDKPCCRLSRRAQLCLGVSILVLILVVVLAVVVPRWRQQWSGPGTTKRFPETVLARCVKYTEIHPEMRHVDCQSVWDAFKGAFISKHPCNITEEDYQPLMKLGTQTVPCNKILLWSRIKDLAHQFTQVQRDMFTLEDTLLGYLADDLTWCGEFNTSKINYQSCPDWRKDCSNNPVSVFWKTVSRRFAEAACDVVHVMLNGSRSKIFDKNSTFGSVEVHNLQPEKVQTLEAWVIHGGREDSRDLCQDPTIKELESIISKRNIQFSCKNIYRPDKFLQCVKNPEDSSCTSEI
Description: CD38 Competition Binding Assay (fluorescence polarisation). Particulars: compared with all-thioether Reference Example 1. The method, then: CD38 Competition Binding Assay Affinity of various bicycle peptide compounds for human CD38 (Ki) was determined using a fluorescence polarisation assay, using the method reported by Lea et al (Expert Opin Drug Discov. 2011 6(1): 17-3) and using the following fluorescently labelled peptides […]-Sar6-K(F1) for TBMB derivatives and […]-Sar6-K(F1) for TATA derivatives where Fl is a fluorescein molecule.
In general terms: Polarisation of emitted light reports the rotation of a fluorescent probe.

Experiment [2] concerns the target T2, human CD38 (human, UniProt P28907 43-300, limits assumed).
T2 construct: construct used is not described; also called hCD38
T2 sequence (looked up): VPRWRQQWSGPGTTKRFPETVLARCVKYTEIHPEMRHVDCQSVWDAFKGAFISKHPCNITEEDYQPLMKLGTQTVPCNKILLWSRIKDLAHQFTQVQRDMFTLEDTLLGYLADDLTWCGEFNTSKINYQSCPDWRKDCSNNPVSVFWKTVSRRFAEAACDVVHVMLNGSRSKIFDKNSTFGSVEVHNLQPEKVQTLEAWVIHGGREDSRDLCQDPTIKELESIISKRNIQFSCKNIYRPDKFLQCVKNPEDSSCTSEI
Description: fluorescence polarisation competition; tracer m10.

Experiment [3] concerns the target T2, human CD38. Description: fluorescence polarisation competition; tracer m11.

*1 amine or outer side, *2 acyl side, *3 side chain or, on linkers, in order; H or OH if unused. Bridges are numbered along the chain shown (N, C = ends). Where no end group is shown, it is not given here. TATA = O=C(CC[*:1])N1CN(C(=O)CC[*:2])CN(C(=O)CC[*:3])C1; TBMB = c1c(C[*:1])cc(C[*:3])cc1C[*:2]

Turning to [Ac]ACVPCADFPIWYC [BCY00009245], the “affinity to CD38 (in words)” value on human CD38 [1] was “high affinity”.

B1: 66-08-52-N001 (peptide)
peptide: ACFTLDGECFLLGENCA
modifications: linker 2-9-16 via TBMB
notes: bicyclic
A word on the Ki: it is the dissociation constant of the complex between target and ligand, obtained from inhibition or displacement. A low value points to higher affinity. Regarding B1, the Ki with human CD38 [2] was determined as 562 nM. In other words, the sub-micromolar range.

B2: 66-50-19-T002-N001 (peptide)
peptide: ACYWNPFTACYSCTEN
modifications: linker 2-10-13 via TATA (inferred)
notes: bicyclic; also called 66-50-19-T02-N001
Molecule B2 showed an inhibition constant Ki in the experiment with human CD38 [3] of 316 nM.

B3: 66-50-16-T01-N001 (peptide)
peptide: ACYWNPFTACWSCEND
modifications: linker 2-10-13 via TATA (inferred)
notes: bicyclic
The molecule B3 gave a Ki with human CD38 [3] of 90 nM. Compared with the last molecule, the Ki is about 3.5-fold lower.
